Results published in patent publication US20090018316A1 (IMMUNEX, published 2009).

Tests used:
[1] = molecular target: T1, native human IL-15 receptor on human cells (human, UniProt Q13261 31-267); test: radiolabeled IL-15 binding to vascular endothelial cells of arterial origin
T1 construct: whole, on cells; Endogenous receptor; its subunits on these cells were not defined; Clone W5 was later cloned from W126-VA4 cells, and clones A212 and A133 from A172 cells
Source text: (§1) Various human cell lines and tissues were screened for the ability to bind radiolabeled IL-15 substantially as described in Example 1. High affinity binding was observed on activated peripheral blood mononuclear cells, activated monocytes and some EBV-transformed cell lines.

[2] = molecular target: T1, native human IL-15 receptor on human …; test: radiolabeled IL-15 binding to vascular endothelial cells of venous origin
Source text: as §1

[3] = molecular target: T1, native human IL-15 receptor on human …; test: radiolabeled IL-15 binding to the glioblastoma cell line A-172
Source text: as §1

[4] = molecular target: T2, murine IL-15R (full length, cDNA clone D1-4-D5) (murine, UniProt Q60819 33-263); test: equilibrium binding of 125I-simian IL-15 to 32Dm15Rα-102 cells (transfected with IL-15Rα)
T2 construct: Cell-surface receptor: recombinant on COS-7 and 32D transfectants, native or endogenous on D10, 32D-01, 32Dmβ-5 and CTLL.2 cells; 32D lines also carry IL-2Rα and γc, and some carry IL-2Rβ; the cell line is named under assay; also called murine IL-15Rα; IL-15Rα
T2 sequence: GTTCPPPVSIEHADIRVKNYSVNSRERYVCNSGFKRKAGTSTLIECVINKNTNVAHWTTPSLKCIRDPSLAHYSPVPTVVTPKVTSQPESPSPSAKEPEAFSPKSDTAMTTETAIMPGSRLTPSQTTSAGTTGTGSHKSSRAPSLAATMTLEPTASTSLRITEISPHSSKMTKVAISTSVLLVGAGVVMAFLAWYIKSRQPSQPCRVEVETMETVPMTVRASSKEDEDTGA

[5] = molecular target: T2, murine IL-15R (full length, cDNA clone …); test: equilibrium binding of 125I-simian IL-15 to D10 cells (native IL-15R)
[6] = molecular target: T2, murine IL-15R (full length, cDNA clone …); test: equilibrium binding of 125I-simian IL-15 to parental 32D-01 cells (endogenous IL-15Rα)
[7] = molecular target: T2, murine IL-15R (full length, cDNA clone …); test: equilibrium binding of 125I-simian IL-15 to 32Dmβm15Rα-3 cells (recombinant IL-15Rα and IL-2Rβ, γc constitutive)
[8] = molecular target: T1, native human IL-15 receptor on human …; test: radiolabeled IL-15 binding to the human fibroblast line W126-VA4
Source text: as §1

[9] = molecular target: T2, murine IL-15R (full length, cDNA clone …); test: 125I-IL-15 binding to monolayers of COS cells transfected with clone D1-4-D5
Protocol: D. Recombinant IL-15R Binding. Plasmid DNA from IL-15 receptor expression plasmid was used to transfect a sub-confluent layer of monkey COS-7 cells using DEAE-dextran followed by chloroquine treatment, as described by Luthman et al., Nucl Acids Res. 11:1295 (1983) and McCutchan et al., J. Natl. Cancer Inst. 41:351 (1968). The cells were then grown in culture for three days to permit transient expression of the inserted sequences. After three days, the cell monolayers were assayed for ¹²⁵I-IL-15 binding essentially as described by Park, et al., J. Exp. Med. 166:476 (1987). Non-specific binding of ¹²⁵I-IL-15 was measured in the presence of 200-fold or greater excess of unlabeled IL-15.

[10] = molecular target: T2, murine IL-15R (full length, cDNA clone …); test: equilibrium binding of 125I-simian IL-15 to 32Dmβ-5 cells (sites ascribed to endogenous IL-15Rα)
[11] = molecular target: T3, complexes of murine β and γc (IL-2Rβ and common γ chain) in the absence of the IL-15Rα chain (murine, UniProt P16297 27-539; P34902 23-369); test: equilibrium binding of 125I-simian IL-15 to 32Dmβ-5 cells: no IL-15 binding sites beyond those of the 32D-01 parent line
T3 construct: whole, on cells; On 32Dmβ-5 cells, which also express IL-2Rα and about 40 sites per cell of endogenous IL-15Rα; also called murine IL-2Rβ/γc; 32Dmβ-5 cells
T3 sequence (looked up) 1: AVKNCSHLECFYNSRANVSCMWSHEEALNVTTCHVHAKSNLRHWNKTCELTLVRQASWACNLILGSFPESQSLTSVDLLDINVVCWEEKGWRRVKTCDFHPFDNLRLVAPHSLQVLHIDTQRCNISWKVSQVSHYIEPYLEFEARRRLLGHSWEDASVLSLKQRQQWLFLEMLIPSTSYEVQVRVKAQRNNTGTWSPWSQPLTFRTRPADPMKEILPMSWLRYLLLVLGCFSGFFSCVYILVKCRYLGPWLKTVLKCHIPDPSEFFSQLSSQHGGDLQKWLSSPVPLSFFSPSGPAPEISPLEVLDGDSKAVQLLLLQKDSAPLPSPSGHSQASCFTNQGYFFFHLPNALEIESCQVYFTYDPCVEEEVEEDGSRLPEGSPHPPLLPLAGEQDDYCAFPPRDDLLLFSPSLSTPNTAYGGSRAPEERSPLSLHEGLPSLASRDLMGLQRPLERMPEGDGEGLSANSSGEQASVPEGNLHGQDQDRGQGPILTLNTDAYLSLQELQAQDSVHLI
T3 sequence (looked up) 2: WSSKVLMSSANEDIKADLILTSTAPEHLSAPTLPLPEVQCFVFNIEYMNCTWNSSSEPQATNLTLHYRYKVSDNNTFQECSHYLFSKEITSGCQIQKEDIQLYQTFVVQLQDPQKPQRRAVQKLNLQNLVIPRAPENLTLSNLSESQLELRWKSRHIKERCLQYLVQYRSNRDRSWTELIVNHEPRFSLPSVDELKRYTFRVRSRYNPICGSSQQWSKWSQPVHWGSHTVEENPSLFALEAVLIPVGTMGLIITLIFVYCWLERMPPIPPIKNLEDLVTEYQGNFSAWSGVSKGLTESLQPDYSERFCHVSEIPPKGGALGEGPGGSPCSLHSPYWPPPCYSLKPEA

T1 sequence (Q13261 31-267): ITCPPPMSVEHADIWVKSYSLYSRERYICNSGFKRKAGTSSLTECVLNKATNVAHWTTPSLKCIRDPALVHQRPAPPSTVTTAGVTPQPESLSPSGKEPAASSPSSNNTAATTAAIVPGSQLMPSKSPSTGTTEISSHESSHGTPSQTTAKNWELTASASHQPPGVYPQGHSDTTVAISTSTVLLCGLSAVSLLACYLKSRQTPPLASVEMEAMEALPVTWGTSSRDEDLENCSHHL

- Kd [1]: 0.163 nM
- Kd [2]: 0.033 nM
- Kd [3]: 0.05 to 0.138 nM
- Ka [4]: 1.5e+11 M⁻¹
- Ka [5]: 1.3e+11 M⁻¹
- Ka [6]: 1.4e+11 M⁻¹
- Ka [7]: 2.2e+11 M⁻¹
- Kd [8]: 0.027 nM
- Kd [9]: 1 to 2.2 nM
- Ka [10]: 1.9e+11 M⁻¹
- binding result [11]: no binding
B1: Recombinant flag simian IL-15 expressed in yeast (ligand)
chain: DYKDDDDKNWVNVISDLKKIEDLIQSMHIDATLYTESDVHPSCKVTAMKCFLLELQVISHESGDTDIHDTVENLIILANNILSSNGNITESGCKECEELEEKNIKEFLQSFVHIVQMFINTS
modifications: radioiodinated (125I, enzymobead iodination reagent); labelled residues not stated
notes: Flag-tagged simian IL-15 made in yeast, purified and radioiodinated; also called 125I-IL-15; 125I-simian IL-15
